Experimental data as given in IntAct's records for PubMed 21620138.

Molecular target: hif1a_human HIF1A (UniProt Q16665)
Sequence (Q16665 whole entry, looked up): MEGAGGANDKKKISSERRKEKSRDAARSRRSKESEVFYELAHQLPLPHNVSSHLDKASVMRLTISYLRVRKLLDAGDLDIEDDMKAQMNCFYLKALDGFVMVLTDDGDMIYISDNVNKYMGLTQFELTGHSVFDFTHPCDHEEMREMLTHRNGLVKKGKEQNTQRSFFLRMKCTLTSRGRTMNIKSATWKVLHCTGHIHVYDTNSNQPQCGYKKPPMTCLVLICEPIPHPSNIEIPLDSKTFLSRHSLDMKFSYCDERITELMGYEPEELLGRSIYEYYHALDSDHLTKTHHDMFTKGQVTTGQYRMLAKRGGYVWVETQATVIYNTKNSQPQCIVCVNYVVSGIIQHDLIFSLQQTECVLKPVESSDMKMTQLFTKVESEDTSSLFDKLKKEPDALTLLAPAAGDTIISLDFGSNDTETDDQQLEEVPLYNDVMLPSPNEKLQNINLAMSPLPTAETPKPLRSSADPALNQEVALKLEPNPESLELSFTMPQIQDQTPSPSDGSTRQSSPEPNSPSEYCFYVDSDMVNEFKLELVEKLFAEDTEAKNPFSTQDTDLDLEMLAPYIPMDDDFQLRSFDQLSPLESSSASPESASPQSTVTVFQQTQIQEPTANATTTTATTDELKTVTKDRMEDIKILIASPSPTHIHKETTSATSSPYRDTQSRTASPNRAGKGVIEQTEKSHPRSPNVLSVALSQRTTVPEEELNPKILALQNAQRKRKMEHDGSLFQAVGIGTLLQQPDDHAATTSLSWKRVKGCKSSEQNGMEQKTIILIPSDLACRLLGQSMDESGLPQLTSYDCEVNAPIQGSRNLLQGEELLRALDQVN

Sequence of Pyruvate kinase PKM (Homo sapiens), P14618-1 P403A;P408A (P14618 whole entry P403A/P408A): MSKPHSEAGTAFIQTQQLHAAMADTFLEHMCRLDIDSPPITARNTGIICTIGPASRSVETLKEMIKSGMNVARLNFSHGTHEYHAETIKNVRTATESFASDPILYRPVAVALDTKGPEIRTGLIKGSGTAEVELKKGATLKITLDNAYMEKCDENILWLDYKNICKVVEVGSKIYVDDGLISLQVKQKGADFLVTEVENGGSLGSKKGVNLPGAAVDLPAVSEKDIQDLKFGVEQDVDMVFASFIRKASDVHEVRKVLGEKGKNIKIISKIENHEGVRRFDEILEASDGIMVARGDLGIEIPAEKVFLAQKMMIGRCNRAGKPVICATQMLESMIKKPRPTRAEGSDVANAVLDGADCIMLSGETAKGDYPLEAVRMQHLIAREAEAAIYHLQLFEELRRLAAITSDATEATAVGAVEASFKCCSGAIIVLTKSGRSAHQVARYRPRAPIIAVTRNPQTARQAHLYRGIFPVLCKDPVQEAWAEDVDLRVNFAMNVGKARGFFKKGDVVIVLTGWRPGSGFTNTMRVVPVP

## Pyruvate kinase PKM (Homo sapiens), P14618-1 P403A;P408A
  effect of a mutation on the interaction: decreasing interaction strength
